Measurements published in US20260153518A1, “DIAGNOSIS OF IMMUNE-MEDIATED INFLAMMATORY DISEASES USING MMP12 AS INDICATOR, AND MEDICINE FOR TREATING IMMUNE-MEDIATED INFLAMMATORY DISEASES VIA MMP12 INHIBITION” (KEIO UNIVERSITY, priority 2022, published 2026).
Where no end group is shown, it is not given here.

Legend:
[1] = test system: SCG/ThpNkc mice (ANCA-associated vasculitis model mice); test: Therapeutic effects of MMP12 inhibitors on ANCA-associated vasculitis model mice; type: in vivo
Procedure: SCG/ThpNkc mice (see Proc Natl Acad Sci USA. 1993 Apr. 15; 90(8): 3413-7.) are ANCA-associated vasculitis model mice created by crossing and interbreeding two strains, MRL/Ipr and BXSB, and can be supplied from Laboratory Animal Resource Bank at the National Institute of Biomedical Innovation, Health and Nutrition (resource number: nbio133).
In this experiment, MMP408 (CAS No. 1258003-93-8), which is an MMP12 selective inhibitor, was administered to male SCG/ThpNkc mice, and the therapeutic effects of MMP408 were examined.
The SCG/ThpNkc mice were reared in cages with normal solid food and water. At weeks of age, it was confirmed that the mice had positive occult blood in their urine. From 11 weeks of age, MMP408 was administered via the intraperitoneal route at a dose of 100 μg twice a week. Urine analysis was performed at 15 and 20 weeks of age, and the mice were sacrificed at 20 weeks of age. The number of mice in an MMP408 non-administration group and the number of mice in an MMP408 administration group were n=25 and n=4, respectively.

h MMP12 = h MMP12 (Homo sapiens, UniProt P39900); test: Evaluation of cleavage of candidate peptides by MMP12 (UPLC); type: biochemical; conditions: for Number of cleavage peaks, Test: UPLC after incubation with h MMP12, 37° C.; for Number of cleavage peaks, Test / Cleavage rate (%) of each candidate peptide by MMP12: 16 hours; for Cleavage rate (%) of each candidate peptide by MMP12: activated h MMP12 2.0 ng/μL mixed 1:1 with 40 μM peptide, 37° C., UPLC peak area before/after, 440 nm; for cleavage rate by MMP12 (in words: low / medium / high) / cleavage site by MMP12: summary of Table 3
Chain of h MMP12 (P39900 106-470): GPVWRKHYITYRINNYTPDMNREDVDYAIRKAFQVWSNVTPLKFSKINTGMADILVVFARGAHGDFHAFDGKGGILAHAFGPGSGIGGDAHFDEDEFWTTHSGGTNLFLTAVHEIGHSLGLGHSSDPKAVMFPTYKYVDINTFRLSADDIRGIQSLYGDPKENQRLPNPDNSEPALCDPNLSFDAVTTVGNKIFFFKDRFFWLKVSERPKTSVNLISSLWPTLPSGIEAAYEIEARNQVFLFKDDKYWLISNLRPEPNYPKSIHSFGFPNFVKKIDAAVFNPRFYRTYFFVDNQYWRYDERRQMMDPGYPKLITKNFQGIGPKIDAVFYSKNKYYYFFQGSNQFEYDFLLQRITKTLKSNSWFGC
Procedure: The evaluation of cleavage of candidate peptides by MMP12 was performed as follows.
On the first day, h MMP12 was diluted to 50 μg/mL with an assay buffer. APMA was added to the h MMP12 solution to adjust the final concentration of APMA to 1 mM, and the solution was incubated at 37° C. for 24 hours to activate h MMP12.
On the second day, activated h MMP12 was diluted to 2 ng/μL (=40 nM) with an assay buffer The substrate (peptide) was diluted to 40 μM with an assay buffer. 50 μL of h MMP12 (2.0 ng/μL) and 50 μL of the substrate (peptide) were mixed and incubated at 37° C. for 16 hours. A blank was prepared by mixing equal volumes of an assay buffer and the substrate (peptide).
On the third day, 100 μL of acetonitrile was added to the mixture from the second day. After centrifugation for 10 minutes, the supernatant was collected, and 10 μL of the supernatant was analyzed using ultra high performance liquid chromatography (UPLC).
UPLC was performed under the conditions of measurement wavelength: 440 nm, flow rate: 0.4 mL/min, A: H2O with 0.1% TFA, B: CH3CN with 0.1% TFA, and elution conditions 10% B→70% B in 9.5 min, and as a result, it was confirmed that the two positive controls were cleaved by MMP12 (data is not shown).
For the candidate peptide Nos, 2, 4 to 7, 11, 15 to 17, 19, 20, and 22, the evaluation of cleavage by MMP12 was performed in the same manner as for the positive controls. Cleavage by MMP12 was confirmed for all the peptides tested. For Nos. 2 and 4 to 7, the cleavage sites were L-Q and L-R/K, but the cleavage rates were different. […] For Nos. 11, 15, 17, 20, and 22, the cleavage site was E-L, but the cleavage rates were different. The cleavage rate of No. 11 was high and the cleavage rate of No. 15 was low even though these candidate peptides have E-L-l. The cleavage rates of Nos. 17, 20, and 22, which have E-L-R, were high.

Row | Compound | urine occult blood ([1]; MMP408 administration group, week 20, FIG. 12 (n=2)) | mice still alive at 20 weeks (survival curve) ([1]; male SCG/ThpNkc mice, MMP408 100 μg intraperitoneal twice a week from 11 weeks of age, n=4, log-rank test p=0.037 vs non-administration group (92% died by 20 weeks)) | Number of cleavage peaks, Test (h MMP12) | Cleavage rate (%) of each candidate peptide by MMP12 (h MMP12) | cleavage rate by MMP12 (in words: low / medium / high) (h MMP12) | cleavage site by MMP12 (h MMP12)
1 | COC(=O)Nc1ccc2oc3cc(S(=O)(=O)N[C@@H](C(=O)O)C(C)C)ccc3c2c1 [MMP408] | improved | 2 out of 4 | – | – | – | –
2 | APIANELRSQSLQT (not fully specified; also: 5-carboxyfluorescein label) [No. 17] | – | – | 1 | 98.6% | high | E-L
3 | APRIKKIVQKKLAG (not fully specified; also: 5-carboxyfluorescein label) [No. 19] | – | – | 1 | 26.0% | – | –
4 | ASVVTELRSQSLQT (not fully specified; also: 5-carboxyfluorescein label) [No. 20] | – | – | 2 | 100.0% | high | E-L
5 | DKVWQDYIKDMKEN [No. 02] | – | – | 1 | 56.0% | medium | –
6 | LNVQRKAIHELIQV (not fully specified; also: 5-carboxyfluorescein label) [No. 11] | – | – | 2 | 100.0% | high | E-L
7 | PAAAVLRELRSVS (not fully specified; also: 5-carboxyfluorescein label) [No. 22] | – | – | 3 | 100.0% | high | E-L
8 | PESSLRKRKRSR (not fully specified; also: 5-carboxyfluorescein label) [No. 16] | – | – | 1 | 61.7% | – | –
9 | RQAFNEKIRVVHQL (not fully specified; also: 5-carboxyfluorescein label) [No. 15] | – | – | 1 | 10.5% | low | E-L
10 | SFSSSRNLQERL (not fully specified; also: 5-carboxyfluorescein label) [No. 06] | – | – | 1 | 90.3% | medium to high | –
11 | SLSFSTNLQKRL (not fully specified; also: 5-carboxyfluorescein label) [No. 04] | – | – | 1 | 53.5% | medium | –
12 | SRNLQERLRRKE (not fully specified; also: 5-carboxyfluorescein label) [No. 05] | – | – | 1 | 38.5% | medium to high | –
13 | STNLQESLRRKE (not fully specified; also: 5-carboxyfluorescein label) [No. 07] | – | – | 2 | 70.4% | medium to high | –
